Source: patent publication US7960548B2, “Keratinocyte growth factor receptor—tyrosine specific inhibitors for the prevention of cancer metastatis” (The Ohio State University Research Foundation, priority 2005, dated 2011)

B1: KGF: recombinant human Keratinocyte Growth Factor, member of the fibroblast growth factor family (FGF-7) (protein, UniProt P21781 32-194, looked up)
Fibroblast growth factor 7: CNDMTPEQMATNVNCSSPERHTRSYDYMEGGDIRVRRLFCRTQWYLRIDKRGKVKGTQEMKNNYNIMEIRTVAVGIVAIKGVESEFYLAMNKEGKLYAKKECNEDCNFKELILENHYNTYASAKWTHNGGEMFVALNQKGIPVRGKKTKKEQKTAHFLPMAIT

Columns and labels:
MCF-7 cells [1] = test: KGF-mediated motility of MCF-7 cells with TK signaling pathway inhibitors; assay type: cell-based, human
Excerpt: (§1) In order to define the signaling pathway involved in the KGF-mediated breast cancer cell motility, we have examined the influence of inhibitors of intermediates in the TK signaling pathway (29, 30, 31). […] In addition, inhibition of Grb2, using a specific Grb2 antisense oligonucleotide, abolished KGF-mediated motility of MCF-7 cells (30, 31). […] Thus, we have observed that the KGFR-Erk1,2 pathway mediates KGF-induced cell motility in ER-positive breast cancer cells. Accordingly, inhibitors targeting the KGF/KGFR/Grb2/Erk1,2 pathway have the potential to be selective therapeutic or chemopreventive modalities against breast cancer metastasis. […] Thus we next considered the design of selective KGFR TK inhibitors to be examined in this study.

phospho-Erk1,2 = test: Western blot of phospho-Erk1,2 in MCF-7 cells; assay type: cell-based, human; conditions: 50 ng/ml KGF and/or inhibitor for 3 days
Protocol: The cells were treated with 50 ng/ml KGF and/or signal transduction inhibitor for 3 days. Equal amounts of protein (10 μg) were loaded for SDS-PAGE analysis.
as §1

MCF-7, T-47D, ZR-75-1 = test: KGF motility response of ER-positive human breast cancer cell lines; assay type: cell-based; conditions: KGF 10-50 ng/ml
Protocol: In our previous experiments, all of the estrogen receptor (ER)-positive human breast cancer cell lines examined (MCF-7, T-47D, ZR-75-1) responded to KGF treatment (10-50 ng/ml); however, the responsiveness differed substantially among the cell lines tested.

[2] = system: MDA-MB-231, SK-BR-3, BT-20; test: KGF motility response of ER-negative cell lines; assay type: cell-based, human; conditions: KGF 10-50 ng/ml
MCF-7 human cancer cells = test: Motility effect of KGF by time-lapse videomicroscopy and culture wounding; assay type: cell-based
Excerpt: Based on this background information, we examined the motility effect of KGF on human breast cancer cells using time-lapse videomicroscopy and culture wounding (22, 23). […] The KGF motility effect is characterized by a rapid increase in ruffling of the plasma membrane and cell scattering. […] Scanning electron microscopy of KGF-treated MCF-7 cells confirmed dramatic changes in cell morphology consistent with active cell motility (FIG. 1). […] Changes in cell morphology, associated with membrane ruffling and motility are believed to be associated with cytoskeletal reorganization and necessary for adhesion foci, cell surface ligand-receptor binding and regulation of gene transduction (24, 25). Accordingly, we have previously observed a significant alteration in the distribution of f-actin in the cytoplasm of KGF stimulated MCF-7 cells (22).

MCF-7 cells [3] = test: MCF-7 nude mouse xenograft model, growth and metastasis (β-gal reporter); assay type: in vivo, female nu/nu balb/C mice
Protocol: In these experiments 5×10^6 viable MCF-7 cells, transfected with a β-gal reporter plasmid, were embedded into 0.2 ml Matrigel and implanted into female nude mice. Four animal/group were treated with either KGF (2.5 μg/kg) or control vehicle every other day. After 21 days of treatment the tumor, lung and liver tissue were removed and assayed for b-gal activity using a CRPG substrate for β-gal.
In order to determine the influence of KGF on tumor growth and development in vivo, we recently examined the effect of KGF treatment on the growth and metastasis of MCF-7 cells in a nude mouse xenograft model (27, 28). In these experiments 5×10^6 viable MCF-7 cells, transfected with a β-gal reporter plasmid, were embedded into 0.2 ml Matrigel and implanted into female nu/nu balb/C mice at 6 weeks of age. At 40 days after tumor cell implantation, when approximately 0.5 cm tumor masses were observed, animal were treated with either human recombinant KGF or control vehicle by intra-tumoral injections every other day for a period of 21 days. […] In tumor and tissue samples, collected at the end of the treatment period, the β-gal activity was used as a reported to quantify MCF-7 cells as previously described (27). […] However, in the connective tissue surrounding the tumors and in the lung and liver tissue samples, the β-gal activity was much greater in the KGF treated than in the control samples (FIG. 2) (28). The results of the present study indicate that KGF enhances the migration of breast cancer cells away from the tumor mass, resulting in measurable lung and liver metastasis within the 21 day treatment period.

Row | Molecule | KGF-mediated motility of MCF-7 cells (MCF-7 cells [1]) | phospho-Erk1,2 protein level (phospho-Erk1,2) | response to KGF treatment, ER-positive cell lines (MCF-7, T-47D, ZR-75-1) | enhancement in motility, ER-negative cell lines [2] | duration of change in morphology of MCF-7 cells (MCF-7 human cancer cells) | motility effect on MCF-7 cells (MCF-7 human cancer cells) | perimeter index (PI) (MCF-7 human cancer cells) | time of maximal KGF motility effect (MCF-7 human cancer cells) | β-gal activity in connective tissue surrounding the tumors, lung and liver (MCF-7 cells [3]; end of 21 day treatment) | β-gal activity in tumor tissue (MCF-7 cells [3]; end of 21 day treatment) | tumor volume (MCF-7 cells [3]; intra-tumoral injections every other day for 21 days, KGF 2.5 μg/kg)
1 | O=c1c(-c2ccc(O)cc2)coc2cc(O)cc(O)c12 [genistein] | completely abolished |  |  |  |  |  |  |  |  |  | 
2 | COc1cccc(-c2cc(=O)c3ccccc3o2)c1N [PD98059] | completely abolished |  |  |  |  |  |  |  |  |  | 
3 | B1 |  | increase | responded | little or no enhancement | at least 48 hours | cell scattering motility effect | dose-related increase | one | much greater | significantly less than in the controls | the same as in the control tumors
